This passage reports Km results from PMC4290037, “Purification and Characterization of Glucose-6-Phosphate Dehydrogenase from Camel Liver” (Enzyme Research, 2014).

Substrate in this data set: NC(=O)c1ccc[n+]([C@@H]2O[C@H](COP(=O)(O)OP(=O)(O)OC[C@H]3O[C@@H](n4cnc5c(N)ncnc54)[C@H](OP(=O)(O)O)[C@@H]3O)[C@@H](O)[C@H]2O)c1
Description: purified protein.

B1: Glucose-6-phosphate dehydrogenase (camel liver G6PD) (Camelus dromedarius) (protein)
chain: AEQVALSRNQVCGILREELYQGDAFHQSDTHIFIIMGASGDLAKKKIYPTIWWLFRDGLLPEDTYIVGYARSRLTVADIRKQSEPFFKATPEEKPKLEEFFARNSYVAGQYDDAASYERLNSHMNALHQGSQANRLFYLALPPTVYEAVTKNIRETCMSQTGWNRIIVEKPFGRDLQSSNQLSNHISSLFREDQIYRIDHYLGKEMVQNLMVLRFANRIFGPIWNRDNIACVILTFKEPFGTEGRGGYFDEFGIIRDVMQNHLLQMLCLVAMEKPASTDSDDVRDEKVKVLKCISEVQANNVVLGQYVGNPNGEGEATKGYLDDPTVPRGSITATFAAVVLYVENERWDGVPFILRCGKALNERKAEVRLQFRDVAGDIFQQQCKRNEVVIRVQPNEAVYTKMMTKKPGMFFNPEESELDLTYGNRYKNVKLPDAYERLILDVFCGSQMHFVRSDELREAWRIFTPLLHKIEREKLQPIPYVYGSRGPAEADELMKRVGFQYEGTYKWVNPHKL
Regarding B1, the Michaelis constant (Km) (as a rule, the substrate concentration at which the rate is half of its maximum) stood at 0.081 mM.
